The record followed here is US8263133B2, “Multivalent clustering targeting strategy for drug carriers” (The Regents of the University of California, priority 2009, dated 2012).

One data set addresses T1, αvβ3 integrins (Homo sapiens, UniProt P05106+P06756).
T1 construct: host or cells: HeLa cells, harvested by scraping
Put plainly: Anti-adhesion assay on vitronectin-coated wells. The note with it: HeLa cells. The data set is classed as cell-based. Here is the method:
HeLa cells (ATCC, Manassas, Va.) were cultured in DMEM medium (Invitrogen, Carlsbad, Calif.) supplemented with 10% Bovine Growth Serum (BGS, Hyclone, Logan, Utah). The cells were cultured at 37° C., with 98% humidity and 5% CO2. Cells were regularly subcultured using trypsin. 96-well plates were coated with human vitronectin by incubating a vitronectin solution (50 μL of 3 μg/mL, Invitrogen, Carlsbad, Calif.) in the well for 12-hrs at 37° C. The wells were washed three times with PBS and blocked with BSA (50 μL of 2% BSA in PBS) for 30 minutes at 37° C. The wells were washed three times with PBS and 100 μL/well of serum-free DMEM was added before chilling on ice. HeLa cells were harvested by scrapping using cell scrapers (USA Scientific, Ocala, Fla.), pelleted, and resuspended in ice cold serum-free DMEM to 400,000 cells/mL. 200 μL of serum-free DMEM was added to 50 μL of Au-Cap-RGD solution and vortexed before 250 μL of cell solution was added to the cells and placed in ice for 15 minutes. 100 μL/well of cell solution was added and allowed to incubate at 37° C. for 50 minutes. The plate was submerged in PBS in a Ziploc bag and centrifuged upside down for 10 minutes at 250 g. The plate was washed gently with additional PBS and removed. Remaining liquid was removed from the wells. The cells were fixed using 4% paraformaldehyde solution for 15 minutes and washed 3 times with PBS. Crystal violet solution was added to each well and incubated for 1 hr. The wells were then washed with milliQ water until no crystal violet was visible in solution. Crystal violet was solubilized using 10% acetic acid plate for 15 min and the absorbance at 570 nm was taken using the PowerWave microplate reader (BioTek, Winooski, Vt.).

The nature of data set [1]: Salt stability of modified and unmodified nanoparticles by UV-Vis absorbance. The data set is classed as physicochemical. To be noted: absorption scan, increasing NaCl. The method, then: FIG. 2. Salt stability of modified and unmodified nanoparticles measured using UV-Vis absorbance spectroscopy. Salt concentration was increased using 2 μL for unmodified nanoparticles and 15 μL of 4.11 M NaCl every 15 min. Wavelength scans of (A) 5 nm unmodified Au nanoparticles and (B) Au-Cap nanoparticles in solution with increasing NaCl concentration. Shaded area under the curves in A and B were used to calculate aggregation parameter. C. Aggregation parameter plotted with mean±SD for n=3 for increasing NaCl concentration for 5 nm unmodified Au and Au-Cap.
Peptide-modified (Au-Cap) and unmodified particles were tested to check their salt stability. Au and Au-Cap nanoparticles were added to semi-micro cuvettes and serial additions of NaCl solution were added every 15 min followed by a wavelength scan from 400-900 nm (Beckman DU 730, Fullerton, Calif.). Aggregation parameter (AP) used to quantify aggregation was calculated using the equation AP=(A−A0)/A0. A is the integral of absorbance from 600 to 700 nm, and A0 is the integral of absorbance from 600 to 700 nm of the initial solution without salt added (see FIG. 2 area under the curve).

The subject of a further data set is HeLa cells. Put plainly: Cell toxicity (proliferation) assay. The data set is classed as cell-based. The note with it: all concentrations tested up to 17.9×10^10 particles/well. Here is the method:
FIG. 4. Cell toxicity (proliferation) assay for Au-Cap nanoparticles and DNA/PEI-Au polyplexes. HeLa cells were plated in 96-well plates (7000 cells/well) for 12-hrs before exposing the cells to Au-Cap nanoparticles or DNA/PEI-Au-Cap-RGD-ASA polyplexes at varying concentrations of Au nanoparticles (1.7 μL/well) and testing for cell proliferation. The data was normalized to absorbance of untreated samples to calculate the percent viability for each sample (n=3).
To determine whether 5 nm Au-Cap or DNA/PEI polyplexes modified with 5 nm Au-RGD-ASA were toxic to cells, the proliferation rate of HeLa cells exposed to Au-Cap or DNA/PEI-Au-RGD-ASA was compared to that of untreated cells (FIG. 4). Au-Cap nanoparticles were not toxic to cells for all the concentrations tested up to 17.9×10^10 particles/well (equivalent to 80×10^10 particles/m DNA).

Where no end group is shown, it is not given here.

T1 sequence (P06756 31-889 limits assumed): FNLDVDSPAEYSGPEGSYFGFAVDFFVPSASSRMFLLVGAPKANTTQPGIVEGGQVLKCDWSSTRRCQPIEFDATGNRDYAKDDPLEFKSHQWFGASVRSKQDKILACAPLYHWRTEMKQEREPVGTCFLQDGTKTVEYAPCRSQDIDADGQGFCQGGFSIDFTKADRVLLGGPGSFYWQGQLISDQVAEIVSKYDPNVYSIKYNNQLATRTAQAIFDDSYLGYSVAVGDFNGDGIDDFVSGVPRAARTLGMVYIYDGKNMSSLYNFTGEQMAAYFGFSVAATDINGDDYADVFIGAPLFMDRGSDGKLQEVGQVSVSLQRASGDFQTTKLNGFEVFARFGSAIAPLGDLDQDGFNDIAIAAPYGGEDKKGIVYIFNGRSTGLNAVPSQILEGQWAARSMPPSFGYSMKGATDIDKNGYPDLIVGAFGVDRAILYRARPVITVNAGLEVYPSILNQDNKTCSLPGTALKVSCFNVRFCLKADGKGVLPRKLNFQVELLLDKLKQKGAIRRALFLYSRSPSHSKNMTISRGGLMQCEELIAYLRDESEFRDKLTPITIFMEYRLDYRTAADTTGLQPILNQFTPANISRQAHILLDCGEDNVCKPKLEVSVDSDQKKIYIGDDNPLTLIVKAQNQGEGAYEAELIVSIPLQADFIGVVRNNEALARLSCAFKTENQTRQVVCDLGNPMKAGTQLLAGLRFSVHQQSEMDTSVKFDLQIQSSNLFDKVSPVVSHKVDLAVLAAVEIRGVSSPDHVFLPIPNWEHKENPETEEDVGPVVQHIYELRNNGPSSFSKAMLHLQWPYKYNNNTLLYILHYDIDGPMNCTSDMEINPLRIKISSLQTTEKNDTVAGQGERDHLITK
T1 sequence (P06756 891-1048 partner limits assumed): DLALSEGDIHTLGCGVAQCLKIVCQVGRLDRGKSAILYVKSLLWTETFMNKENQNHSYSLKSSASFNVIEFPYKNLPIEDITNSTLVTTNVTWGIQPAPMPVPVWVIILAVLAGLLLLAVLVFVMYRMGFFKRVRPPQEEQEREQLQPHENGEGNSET
T1 sequence (P05106 27-788): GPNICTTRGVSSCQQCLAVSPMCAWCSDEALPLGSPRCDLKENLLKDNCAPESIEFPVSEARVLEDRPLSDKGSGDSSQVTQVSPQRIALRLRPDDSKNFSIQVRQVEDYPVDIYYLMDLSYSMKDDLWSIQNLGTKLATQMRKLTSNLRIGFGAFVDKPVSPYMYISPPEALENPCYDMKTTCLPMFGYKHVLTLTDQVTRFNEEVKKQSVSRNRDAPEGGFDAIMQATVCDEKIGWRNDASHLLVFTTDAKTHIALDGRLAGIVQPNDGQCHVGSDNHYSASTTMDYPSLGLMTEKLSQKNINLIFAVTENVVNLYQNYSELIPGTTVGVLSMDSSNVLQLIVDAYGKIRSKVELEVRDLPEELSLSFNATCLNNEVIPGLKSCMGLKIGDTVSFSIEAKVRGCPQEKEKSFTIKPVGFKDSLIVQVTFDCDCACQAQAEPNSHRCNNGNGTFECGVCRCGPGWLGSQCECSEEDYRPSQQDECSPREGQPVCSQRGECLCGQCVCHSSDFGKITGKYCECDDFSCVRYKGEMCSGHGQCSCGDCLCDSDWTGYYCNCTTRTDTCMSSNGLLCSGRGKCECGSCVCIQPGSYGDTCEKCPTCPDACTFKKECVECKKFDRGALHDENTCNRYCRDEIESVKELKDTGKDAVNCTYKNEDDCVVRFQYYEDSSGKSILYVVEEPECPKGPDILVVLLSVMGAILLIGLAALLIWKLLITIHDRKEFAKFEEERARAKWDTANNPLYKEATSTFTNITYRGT

Turning to “Au-Cap-RGD: RGD modified gold nanoparticles formed with mixtures of Cap and Cap-RGD peptides (peptide 1 Ac-CCVVVTGRGDSPSSK-OH; peptide 2 CCVVVT-OH; cysteine pairing not given here; also: mixture of Cap and Cap-RGD peptides on gold nanoparticles)”, the “Equivalent amount of RGD required compared to monovalent free RGD peptide” value with αvβ3 integrins (n=3) is listed as “required less”. Further, the IC50 in the data set with αvβ3 integrins (equivalent RGD peptide concentration, read-out: IC50 concentration at which 50% of cell adhesion is inhibited) is roughly 100 nM.
In the case of “Au-Cap: 5 nm gold nanoparticles stabilized with self-assembling peptide CCVVVT (Cap) (CCVVVT-OH; cysteine pairing not given here; also: attached to 5 nm gold nanoparticles)”, the “NaCl concentration up to which nanoparticles are stable” value in data set [1] is given as “up to 500 mM”. Besides, the Toxicity to cells result with HeLa cells is “not toxic”. Besides, in the data set with αvβ3 integrins, the “Effect on cell attachment” value is “did not affect cell attachment”.
